Results: patent publication US20200085789A1, “USE OF A PROTEASOME INHIBITOR FOR THE TREATMENT OF CENTRAL NERVOUS SYSTEM (CNS) CANCERS” (Celgene International II Sàrl, priority 2017, published 2020)
Like-named read-outs stand apart in the source and are kept apart here.

Columns and labels:
[1] = in vivo; cited from earlier work
[2] = Bevacizumab serum pharmacokinetics, peak and trough (Part 1 Phase 1); format: in vivo, human; conditions: for Cmax D 1: C1D1; for Cmax D 15 / Cmin D 15: C1D15
Source text: The drugs were infused on 28-Day Cycles.

[3] = Day 0, 10 mg/kg dose (Gordon et al., 2001); cited from earlier work
[4] = tested on: WHO Grade IV malignant glioma; conditions: cited from earlier work
[5] = Adverse events and dose-limiting toxicity (NCI-CTCAE v 4.03), MRZ ± BEV in recurrent grade IV malignant glioma patients; format: in vivo, human
Source text: An adverse event (AE) is any noxious, unintended, or untoward medical occurrence that may appear or worsen in a subject during the course of a study. […] Any worsening (i.e., any clinically significant adverse change in the frequency or intensity of a pre-existing condition) should be considered an AE.
The severity/intensity of AEs will be graded based upon the subject's symptoms according to the current active minor version of the Common Terminology Criteria for Adverse Events ( ).

[6] = Heiland (Freiburg, Germany), All Pts
[7] = Heiland (Freiburg, Germany), Methylated
[8] = Heiland (Freiburg, Germany), Unmethylated
[9] = Wick (EORTC 26101 P2), Methylated
[10] = Wick (EORTC 26101 P2), Unmethylated
[11] = MRZ 0.7 mg/m^2 + BEV, Cohort 2 (N = 3)
[12] = MRZ 0.8 mg/m^2 + BEV, Cohorts 3 & 4 (N = 27)
[13] = treated with MRZ 0.8 mg/m^2 + BEV (N = 27)

CC(C)C[C@H](NC(=O)[C@H](Cc1ccccc1)NC(=O)c1cnccn1)B(O)O [BTZ, bortezomib, reference compound]
crossing of the blood brain barrier [1]: does not cross the blood brain barrier

bevacizumab [reference compound]
mean Cmin ([2]; Day 15): 95 µg/mL
Cmax D 1 ([2]; MRZ 0.7 mg/m^2 cohort): 193 ± 8 (2) μg/mL
Cmax D 15 ([2]; MRZ 0.7 mg/m^2 cohort): 402 ± 123 (3) μg/mL
Cmin D 15 ([2]; MRZ 0.7 mg/m^2 cohort): 81.1 ± 17.4 (2) μg/mL
Cmax D 1 ([2]; MRZ 0.8 mg/m^2 cohort): 267 ± 13.3 (3) μg/mL
Cmax D 15 ([2]; MRZ 0.8 mg/m^2 cohort): 380 ± 56.5 (2) μg/mL
Cmin D 15 ([2]; MRZ 0.8 mg/m^2 cohort): 85.0 ± 9.87 (3) μg/mL
mean Cmax ([2]; all dose cohorts, Day 1, 10 mg/kg): 275 µg/mL
pharmacokinetic parameters ([2]; co-administration with marizomib): consistent with published parameters and not affected by co-administration
mean Cmax ([2]; second value printed for Day 1): 379 µg/mL
Cmax [3]: 284 µg/mL
6 mo Overall Survival ([4]; Field (CABARET), All Pts): 61%
6 mo Progression Free Survival ([4]; Field (CABARET), All Pts): 18%
9 mo Overall Survival ([4]; Field (CABARET), All Pts): 39%
9 mo Progression Free Survival ([4]; Field (CABARET), All Pts): 6%
12 Mo. Overall Survival ([4]; Field (CABARET), All Pts): 24%
6 mo Overall Survival [4, 6]: 18%
9 mo Overall Survival [4, 6]: 30%
9 mo Progression Free Survival [4, 6]: 0%
12 Mo. Overall Survival [4, 6]: 10%
12 Mo. Progression Free Survival [4, 6]: 0%
6 mo Overall Survival [4, 7]: 58%
6 mo Progression Free Survival [4, 7]: 38%
9 mo Overall Survival [4, 7]: 40%
9 mo Progression Free Survival [4, 7]: 22%
12 Mo. Overall Survival [4, 7]: 24%
12 Mo. Progression Free Survival [4, 7]: 10%
6 mo Overall Survival [4, 8]: 25%
6 mo Progression Free Survival [4, 8]: 10%
9 mo Progression Free Survival [4, 8]: 0%
12 Mo. Progression Free Survival [4, 8]: 0%
6 mo Overall Survival ([4]; Taal (BELOB), All Pts): 62%
6 mo Progression Free Survival ([4]; Taal (BELOB), All Pts): 16%
9 mo Overall Survival ([4]; Taal (BELOB), All Pts): 45%
9 mo Progression Free Survival ([4]; Taal (BELOB), All Pts): 8%
12 Mo. Overall Survival ([4]; Taal (BELOB), All Pts): 26%
6 mo Overall Survival ([4]; Taal (BELOB), Methylated): 83%
6 mo Progression Free Survival ([4]; Taal (BELOB), Methylated): 33%
9 mo Overall Survival ([4]; Taal (BELOB), Methylated): 67%
9 mo Progression Free Survival ([4]; Taal (BELOB), Methylated): 22%
12 Mo. Overall Survival ([4]; Taal (BELOB), Methylated): 56%
6 mo Overall Survival ([4]; Taal (BELOB), Unmethylated): 50%
6 mo Progression Free Survival ([4]; Taal (BELOB), Unmethylated): 8%
9 mo Progression Free Survival ([4]; Taal (BELOB), Unmethylated): 0%
12 Mo. Overall Survival ([4]; Taal (BELOB), Unmethylated): 8%
12 Mo. Progression Free Survival ([4]; Taal (BELOB), Unmethylated): 0%
6 mo Progression Free Survival ([4]; Wick (EORTC 26101 P2), All Pts): 14%
9 mo Progression Free Survival ([4]; Wick (EORTC 26101 P2), All Pts): 9%
12 Mo. Progression Free Survival ([4]; Wick (EORTC 26101 P2), All Pts): 8%
6 mo Progression Free Survival [4, 9]: 25%
9 mo Progression Free Survival [4, 9]: 9%
12 Mo. Progression Free Survival [4, 9]: 9%
6 mo Progression Free Survival [4, 10]: 10%
9 mo Progression Free Survival [4, 10]: 10%
12 Mo. Progression Free Survival [4, 10]: 10%
6-month progression-free survival (PFS) rate ([4]; recurrent G4 MG, BEV alone): ~43%
median overall survival (OS) ([4]; recurrent G4 MG, BEV alone): ~9 months
Grade ≥3 Ataxia related to the labelled drug, patients [5, 11]: 0
Grade ≥3 Confusional State related to the labelled drug, patients [5, 11]: 0
Grade ≥3 Delusion related to the labelled drug, patients [5, 11]: 0
Grade ≥3 Dyspnea related to the labelled drug, patients [5, 11]: 0
Grade ≥3 Embolism related to the labelled drug, patients [5, 11]: 0
Grade ≥3 Fall related to the labelled drug, patients [5, 11]: 0
Grade ≥3 Fatigue related to the labelled drug, patients [5, 11]: 0
Grade ≥3 Hallucination related to the labelled drug, patients [5, 11]: 0
Grade ≥3 Headache related to the labelled drug, patients [5, 11]: 0
Grade ≥3 Hypertension related to the labelled drug, patients [5, 11]: 1
Grade ≥3 Hyponatremia related to the labelled drug, patients [5, 11]: 0
Grade ≥3 Insomnia related to the labelled drug, patients [5, 11]: 0
Grade ≥3 Intracranial Hemorrhage related to the labelled drug, patients [5, 11]: 0
Grade ≥3 Optic Nerve Disorder related to the labelled drug, patients [5, 11]: 0
Grade ≥3 Proteinuria related to the labelled drug, patients [5, 11]: 1
Grade ≥3 Ataxia related to the labelled drug, patients [5, 12]: 0
Grade ≥3 Confusional State related to the labelled drug, patients [5, 12]: 0
Grade ≥3 Delusion related to the labelled drug, patients [5, 12]: 0
Grade ≥3 Dyspnea related to the labelled drug, patients [5, 12]: 1
Grade ≥3 Embolism related to the labelled drug, patients [5, 12]: 1
Grade ≥3 Fall related to the labelled drug, patients [5, 12]: 0
Grade ≥3 Fatigue related to the labelled drug, patients [5, 12]: 1
Grade ≥3 Hallucination related to the labelled drug, patients [5, 12]: 0
Grade ≥3 Headache related to the labelled drug, patients [5, 12]: 1
Grade ≥3 Hypertension related to the labelled drug, patients [5, 12]: 5
Grade ≥3 Hyponatremia related to the labelled drug, patients [5, 12]: 0
Grade ≥3 Insomnia related to the labelled drug, patients [5, 12]: 0
Grade ≥3 Intracranial Hemorrhage related to the labelled drug, patients [5, 12]: 1
Grade ≥3 Optic Nerve Disorder related to the labelled drug, patients [5, 12]: 1
Grade ≥3 Proteinuria related to the labelled drug, patients [5, 12]: 0
Anaemia: # Patients, AE related to the labelled drug(s) ([5]; pts on MRZ+BEV): 0
Anxiety: # Patients, AE related to the labelled drug(s) ([5]; pts on MRZ+BEV): 0
Aphasia: # Patients, AE related to the labelled drug(s) ([5]; pts on MRZ+BEV): 0
Appendicitis Perforated: # Patients, AE related to the labelled drug(s) ([5]; pts on MRZ+BEV): 0
Asthenia: # Patients, AE related to the labelled drug(s) ([5]; pts on MRZ+BEV): 0
Ataxia: # Patients, AE related to the labelled drug(s) ([5]; pts on MRZ+BEV): 0
Confusional State: # Patients, AE related to the labelled drug(s) ([5]; pts on MRZ+BEV): 0
Constipation: # Patients, AE related to the labelled drug(s) ([5]; pts on MRZ+BEV): 0
Convulsion: # Patients, AE related to the labelled drug(s) ([5]; pts on MRZ+BEV): 0
Delusion: # Patients, AE related to the labelled drug(s) ([5]; pts on MRZ+BEV): 0
Depressed Level of Consciousness: # Patients, AE related to the labelled drug(s) ([5]; pts on MRZ+BEV): 0
Diarrhoea: # Patients, AE related to the labelled drug(s) ([5]; pts on MRZ+BEV): 0
Dizziness: # Patients, AE related to the labelled drug(s) ([5]; pts on MRZ+BEV): 0
Dysarthria: # Patients, AE related to the labelled drug(s) ([5]; pts on MRZ+BEV): 0
Dysphagia: # Patients, AE related to the labelled drug(s) ([5]; pts on MRZ+BEV): 0
Dysphonia: # Patients, AE related to the labelled drug(s) ([5]; pts on MRZ+BEV): 10
Dyspnoea: # Patients, AE related to the labelled drug(s) ([5]; pts on MRZ+BEV): 0
Ear Infection: # Patients, AE related to the labelled drug(s) ([5]; pts on MRZ+BEV): 0
Epistaxis: # Patients, AE related to the labelled drug(s) ([5]; pts on MRZ+BEV): 7
Falls: # Patients, AE related to the labelled drug(s) ([5]; pts on MRZ+BEV): 0
Fatigue: # Patients, AE related to the labelled drug(s) ([5]; pts on MRZ+BEV): 0
Fracture of Femur: # Patients, AE related to the labelled drug(s) ([5]; pts on MRZ+BEV): 0
Hallucination: # Patients, AE related to the labelled drug(s) ([5]; pts on MRZ+BEV): 0
Headache: # Patients, AE related to the labelled drug(s) ([5]; pts on MRZ+BEV): 1
Hemiparesis: # Patients, AE related to the labelled drug(s) ([5]; pts on MRZ+BEV): 0
Hyperglycemia: # Patients, AE related to the labelled drug(s) ([5]; pts on MRZ+BEV): 0
Hypertension: # Patients, AE related to the labelled drug(s) ([5]; pts on MRZ+BEV): 13
Hypokalemia: # Patients, AE related to the labelled drug(s) ([5]; pts on MRZ+BEV): 0
Hyponatremia: # Patients, AE related to the labelled drug(s) ([5]; pts on MRZ+BEV): 0
Hypotension: # Patients, AE related to the labelled drug(s) ([5]; pts on MRZ+BEV): 0
Infusion Site Pain: # Patients, AE related to the labelled drug(s) ([5]; pts on MRZ+BEV): 0
Insomnia: # Patients, AE related to the labelled drug(s) ([5]; pts on MRZ+BEV): 1
Lymphocyte Count Decreased: # Patients, AE related to the labelled drug(s) ([5]; pts on MRZ+BEV): 0
Muscular Weakness: # Patients, AE related to the labelled drug(s) ([5]; pts on MRZ+BEV): 0
Nausea: # Patients, AE related to the labelled drug(s) ([5]; pts on MRZ+BEV): 0
Optic Nerve Disorder: # Patients, AE related to the labelled drug(s) ([5]; pts on MRZ+BEV): 1
Pyramidal Tract Syndrome: # Patients, AE related to the labelled drug(s) ([5]; pts on MRZ+BEV): 0
Tumor Metastasis: # Patients, AE related to the labelled drug(s) ([5]; pts on MRZ+BEV): 0
Vision Blurred: # Patients, AE related to the labelled drug(s) ([5]; pts on MRZ+BEV): 0
Vomiting: # Patients, AE related to the labelled drug(s) ([5]; pts on MRZ+BEV): 0
Anaemia related to the labelled drug(s) [5, 13]: (0.0%)
Anaemia related to the labelled drug(s), patients [5, 13]: 0
Ataxia related to the labelled drug(s) [5, 13]: (0.0%)
Ataxia related to the labelled drug(s), patients [5, 13]: 0
Confusional state related to the labelled drug(s) [5, 13]: (3.7%)
Confusional state related to the labelled drug(s), patients [5, 13]: 1
Constipation related to the labelled drug(s) [5, 13]: (3.7%)
Constipation related to the labelled drug(s), patients [5, 13]: 1
Diarrhoea related to the labelled drug(s) [5, 13]: (3.7%)
Diarrhoea related to the labelled drug(s), patients [5, 13]: 1
Dizziness related to the labelled drug(s) [5, 13]: (3.7%)
Dizziness related to the labelled drug(s), patients [5, 13]: 1
Dysphonia related to the labelled drug(s) [5, 13]: (37.0%)
Dysphonia related to the labelled drug(s), patients [5, 13]: 10
Epistaxis related to the labelled drug(s) [5, 13]: (25.9%)
Epistaxis related to the labelled drug(s), patients [5, 13]: 7
Fall related to the labelled drug(s) [5, 13]: (0.0%)
Fall related to the labelled drug(s), patients [5, 13]: 0
Fatigue related to the labelled drug(s) [5, 13]: (66.7%)
Fatigue related to the labelled drug(s), patients [5, 13]: 18
Hallucination related to the labelled drug(s) [5, 13]: (0.0%)
Hallucination related to the labelled drug(s), patients [5, 13]: 0
Headache related to the labelled drug(s) [5, 13]: (22.2%)
Headache related to the labelled drug(s), patients [5, 13]: 6
Hypertension related to the labelled drug(s) [5, 13]: (40.7%)
Infusion site pain related to the labelled drug(s) [5, 13]: (3.7%)
Infusion site pain related to the labelled drug(s), patients [5, 13]: 1
Muscular weakness related to the labelled drug(s) [5, 13]: (3.7%)
Muscular weakness related to the labelled drug(s), patients [5, 13]: 1
Nausea related to the labelled drug(s) [5, 13]: (7.4%)
Platelet count decreased related to the labelled drug(s) [5, 13]: (11.1%)
Platelet count decreased related to the labelled drug(s), patients [5, 13]: 3
Stomatitis related to the labelled drug(s) [5, 13]: (7.4%)
Upper-airway cough syndrome related to the labelled drug(s) [5, 13]: (18.5%)
Upper-airway cough syndrome related to the labelled drug(s), patients [5, 13]: 5
Vomiting related to the labelled drug(s) [5, 13]: (14.8%)
